Source: article PMC5567343, “Flow-induced elongation of von Willebrand factor precedes tension-dependent activation” (Nature Communications, 2017)

Columns and labels:
Details in all cases: both partners purified
[1] = molecular target: T1, Recombinant human von Willebrand factor concatemers, labeled with biotin and Alexa Fluor 488 (human, UniProt P04275 764-2813, biotin (~0.3 per monomer, from Sulfo-NHS-LC-Biotin); Alexa Fluor 488 (0.67 fluorophore/monomer)); assay: two-colour single-molecule TIRF imaging under flow; as a1 but 10 mM NaCl; VWF regions at average tension 36 ± 2.3 pN; apparent kon and koff, KD = koff/kon
T1 construct: Disulfide-linked concatemers of varying length; held on the flow-chamber wall through biotin and Traptavidin; also called VWF; VWF concatemer; source: Chinese hamster ovary cells, furin-treated, purified to >99% (Baxter BioScience); labeled, Sepharose CL-2B gel filtration, fraction 1; copies: ~20-200

[2] = molecular target: T1, Recombinant human von Willebrand factor …; assay: two-colour single-molecule TIRF imaging under flow; as a1 but 10 mM NaCl; VWF regions at average tension 28 ± 2.3 pN; apparent kon and koff, KD = koff/kon
[3] = molecular target: T1, Recombinant human von Willebrand factor …; assay: two-colour single-molecule TIRF imaging under flow; dissociation of GPIbα after flow cessation from 1280 to 0 dyn cm^-2, 57 fps, 20 concatemers, three flow cycles each; 100 nM GPIbα, 150 mM NaCl
[4] = molecular target: T1, Recombinant human von Willebrand factor …; assay: two-colour single-molecule TIRF imaging under flow; as a1; 150 mM NaCl; combined fit of the two highest force bins, tension 40-56 pN, where activation by force is maximal; apparent kon and koff, KD = koff/kon
[5] = molecular target: T1, Recombinant human von Willebrand factor …; assay: two-colour single-molecule TIRF imaging under flow; as a1; 150 mM NaCl; VWF regions at average tension 36 ± 2.3 pN; apparent kon and koff, KD = koff/kon
[6] = molecular target: T1, Recombinant human von Willebrand factor …; assay: two-colour single-molecule TIRF imaging under flow; as a1 but 10 mM NaCl; VWF regions at average tension 20 ± 2.3 pN; apparent kon and koff, KD = koff/kon
[7] = molecular target: T1, Recombinant human von Willebrand factor …; assay: two-colour single-molecule TIRF imaging under flow; as a1 but 10 mM NaCl; VWF regions at average tension 52 ± 2.3 pN; apparent kon and koff, KD = koff/kon
[8] = molecular target: T1, Recombinant human von Willebrand factor …; assay: two-colour single-molecule TIRF imaging under flow; as a1; 150 mM NaCl; VWF regions at average tension 28 ± 2.3 pN; apparent kon and koff, KD = koff/kon
[9] = molecular target: T1, Recombinant human von Willebrand factor …; assay: two-colour single-molecule TIRF imaging under flow; as a1 but 10 mM NaCl; VWF regions at average tension 44 ± 2.3 pN; apparent kon and koff, KD = koff/kon
[10] = molecular target: T1, Recombinant human von Willebrand factor …; assay: two-colour single-molecule TIRF imaging under flow; as a1; 150 mM NaCl; VWF regions at average tension 52 ± 2.3 pN; apparent kon and koff, KD = koff/kon
[11] = molecular target: T1, Recombinant human von Willebrand factor …; assay: two-colour single-molecule TIRF imaging under flow; biotin/Alexa 488-VWF tethered to Traptavidin on the chamber wall, Alexa 647-GPIbα in solution at five concentrations; association kinetics after shift from 0 to 1280 dyn cm^-2; 150 mM NaCl, 20 mM HEPES pH 7.4, 0.02% Tween 20; VWF regions at average tension 12 ± 2.2 pN; apparent kon and koff, 1:1 fit, KD = koff/kon
[12] = molecular target: T1, Recombinant human von Willebrand factor …; assay: two-colour single-molecule TIRF imaging under flow; as a1 but 10 mM NaCl; VWF regions at average tension 12 ± 2.2 pN; apparent kon and koff, KD = koff/kon
[13] = molecular target: T1, Recombinant human von Willebrand factor …; assay: two-colour single-molecule TIRF imaging under flow; as a1 but 10 mM NaCl; combined fit of the two highest force bins, tension 40-56 pN; apparent kon and koff, KD = koff/kon
[14] = molecular target: T1, Recombinant human von Willebrand factor …; assay: two-colour single-molecule TIRF imaging under flow; as a1; 150 mM NaCl; VWF regions at average tension 44 ± 2.3 pN; apparent kon and koff, KD = koff/kon
[15] = molecular target: T1, Recombinant human von Willebrand factor …; assay: two-colour single-molecule TIRF imaging under flow; as a1; 150 mM NaCl; VWF regions at average tension 20 ± 2.3 pN; apparent kon and koff, KD = koff/kon

Kd [1]: 0.8 nM
koff [1]: 0.4 s⁻¹
kon [1]: 5.08e+08 M⁻¹ s⁻¹
Kd [2]: 1.1 nM
koff [2]: 0.5 s⁻¹
kon [2]: 4.65e+08 M⁻¹ s⁻¹
koff [3]: ≥ 23 s⁻¹
Kd [4]: 78 nM
koff [4]: 3.9 s⁻¹
kon [4]: 5e+07 M⁻¹ s⁻¹
Kd [5]: 68 nM
koff [5]: 3.3 s⁻¹
kon [5]: 4.9e+07 M⁻¹ s⁻¹
Kd [6]: 4.1 nM
koff [6]: 1.1 s⁻¹
kon [6]: 2.61e+08 M⁻¹ s⁻¹
Kd [7]: 0.6 nM
koff [7]: 0.3 s⁻¹
kon [7]: 5.38e+08 M⁻¹ s⁻¹
Kd [8]: 102 nM
koff [8]: 3.5 s⁻¹
kon [8]: 3.5e+07 M⁻¹ s⁻¹
Kd [9]: 0.6 nM
koff [9]: 0.3 s⁻¹
kon [9]: 5.38e+08 M⁻¹ s⁻¹
Kd [10]: 71 nM
koff [10]: 3.6 s⁻¹
kon [10]: 5.1e+07 M⁻¹ s⁻¹
Kd [11]: 18000 nM
koff [11]: 2.3 s⁻¹
kon [11]: 100000 M⁻¹ s⁻¹
Kd [12]: 5.3 nM
koff [12]: 1.1 s⁻¹
kon [12]: 2.13e+08 M⁻¹ s⁻¹
Kd [13]: 0.6 nM
koff [13]: 0.3 s⁻¹
kon [13]: 5.38e+08 M⁻¹ s⁻¹
Kd [14]: 85 nM
koff [14]: 4.2 s⁻¹
kon [14]: 4.9e+07 M⁻¹ s⁻¹
Kd [15]: 290 nM
koff [15]: 3.8 s⁻¹
kon [15]: 1.3e+07 M⁻¹ s⁻¹
B1: Wild-type human platelet GPIbα (His1 to Arg290), Alexa Fluor 647-labeled (domain or fragment, UniProt P07359 17-306, looked up)
chain: HPICEVSKVASHLEVNCDKRNLTALPPDLPKDTTILHLSENLLYTFSLATLMPYTRLTQLNLDRCELTKLQVDGTLPVLGTLDLSHNQLQSLPLLGQTLPALTVLDVSFNRLTSLPLGALRGLGELQELYLKGNELKTLPPGLLTPTPKLEKLSLANNNLTELPAGLLNGLENLDTLLLQENSLYTIPKGFFGSHLLPFAFLHGNPWLCNCEILYFRRWLQDNAENVYVWKQGVDVKAMTSNVASVQCDNSDKFPVYKYPGKGCPTLGDEGDTDLYDYYPEEDTEGDKVR
modifications: Alexa Fluor 647 (NHS ester; fluorophore:GPIbα 1.01:1)
notes: platelet glycoprotein Ib alpha chain, human, wild type, His1 to Arg290; also called GPIα-Alexa Fluor 647; source: HEK293T, transiently transfected, culture supernatant, purified (Ni-NTA, Superdex 200 SEC)
